For one experiment, the target named is huPrP23-231 (human) (UniProt P04156). The experiment is described as follows: DELFIA.
Another experiment deals with huPrP23-231 (Homo sapiens, UniProt P04156). Briefly: DELFIA.

Broadly, the Kd is the concentration at which binding is half-saturated. Molecule “Aβ-derived diffusible ligands (ADDLs) prepared from Aβ1-42 (from UniProt P05067) (peptide)” yielded a Kd with huPrP23-231 (human) of 100 nM.

As for “bADDLs prepared from biotinylated Aβ1-42 (bAβ1-42) (from UniProt P05067) (peptide)”, in the experiment with huPrP23-231 (human), the Kd is 82 nM.

B1: ICSM-18 (antibody, V domains shown)
VH: EVQLQQSGPELVKPGSSVKISCKASRNTFTDYNLDWVKQSHGKTLEWIGNVYPNNGVTGYNQKFRGKATLTVDKSSSTAYMELHSLTSEDSAVYYCALYYYDVSYWGQGTLVTVSS
VL: QIVLTQSPAIMSASPGEKVTMTCSASSSVSYMHWYQQKSGTSPKRWIYDTSKLASGVPARFSGSGSGTSYSLTISSMEAEDAATYFCHQWRSNPYTFGGGTKLEIK
As a reminder, the Ki is a dissociation constant, usually derived from enzyme kinetics or from competition with a known ligand. In the case of B1, in the experiment with huPrP23-231, the Kd was about 10 nM and the Ki is about 20 nM.

These data come from article PMC3156817 (Nature Communications, 2011).
